Results as given in patent US20190300616A1.

What was measured:
[1] = molecular target: Pngase F-treated rhIL13Rα2hFc (human) (UniProt Q14627); assay: plate-bound ELISA, Pngase F-treated rhIL13Rα2hFc
[2] = molecular target: recombinant human IL13Rα2hFc chimera (human) (UniProt Q14627); assay: SPR, Biacore 3000; mAb immobilized, rhIL13Rα2 injected; 1:1 model
[3] = molecular target: human wild-type IL13Rα2 expressed on the cell surface (human) (UniProt Q14627); assay: flow cytometry (APC-A), N10 glioma cells
[4] = molecular target: human wild-type IL13Rα2 expressed on the cell surface (human) (UniProt Q14627); assay: flow cytometry (APC-A), N10 glioma cells pre-incubated with 10x excess rhIL13, then mIgG
[5] = molecular target: recombinant human IL13Rα2hFc chimera (human) (UniProt Q14627); assay: plate-bound ELISA on rhIL13Rα2hFc

Chain of recombinant human IL13Rα2hFc chimera (human) (Q14627 27-343 limits assumed, stated change not applied): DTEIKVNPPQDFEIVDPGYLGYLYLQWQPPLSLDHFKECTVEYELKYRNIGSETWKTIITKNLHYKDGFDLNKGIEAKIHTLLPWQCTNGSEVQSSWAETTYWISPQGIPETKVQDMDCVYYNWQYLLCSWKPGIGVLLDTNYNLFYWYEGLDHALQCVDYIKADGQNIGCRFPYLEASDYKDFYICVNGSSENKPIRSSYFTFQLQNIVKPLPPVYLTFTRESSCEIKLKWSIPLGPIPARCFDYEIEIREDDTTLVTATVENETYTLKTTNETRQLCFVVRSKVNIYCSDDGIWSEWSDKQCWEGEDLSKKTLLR
Chain of human wild-type IL13Rα2 expressed on the cell surface (human) (Q14627 27-380): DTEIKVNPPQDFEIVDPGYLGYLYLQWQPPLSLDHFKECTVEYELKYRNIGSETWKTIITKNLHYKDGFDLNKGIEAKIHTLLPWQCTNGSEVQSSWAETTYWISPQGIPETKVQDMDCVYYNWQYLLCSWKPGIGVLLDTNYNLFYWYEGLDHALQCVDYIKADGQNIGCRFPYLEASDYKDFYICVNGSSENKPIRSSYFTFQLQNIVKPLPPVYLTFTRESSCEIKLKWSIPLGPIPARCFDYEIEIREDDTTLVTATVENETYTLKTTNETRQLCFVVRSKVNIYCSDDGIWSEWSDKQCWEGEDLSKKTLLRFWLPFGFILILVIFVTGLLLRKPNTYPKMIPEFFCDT
Chain of Pngase F-treated rhIL13Rα2hFc (human) (Q14627 27-343 limits assumed): as the sequence (Q14627 27-343 limits assumed, stated change not applied) above

Row | percent decrease of binding against untreated protein [1] [%] | Kd [2] [nM] | koff [2] [s⁻¹] | kon [2] [M⁻¹ s⁻¹] | % positive cells [3] [%] | % positive cells [4] [%] | EC50 (read off the curve) [5] [µg/mL] | Substance
1 | 80 | 104 | 0.00231 | 22300 |  |  |  | mAb to IL13Rα2 (clone 83807) (antibody)
2 |  |  |  |  | 1.9 | 0.9 |  | mIgG (antibody)
3 |  | 46.1 | 0.00499 | 108000 |  |  | 0.2 | monoclonal antibody to IL13Rα2 (clone B-D13)
